Results from patent publication US20240117018A1.

Tests used:
Assay in all cases: cell-based or functional assay
[1] = target: HIV-1 Env of pseudovirus BJOX009000.02.4 (HIV-1)
[2] = target: HIV-1 Env of pseudovirus T251-18 (HIV-1)
[3] = target: HIV-1 Env of pseudovirus C1080.c03 (HIV-1)
[4] = target: HIV-1 Env of pseudovirus C3347.c11 (HIV-1)
[5] = target: HIV-1 Env of pseudovirus X2131_C1_B5 (HIV-1)
[6] = target: HIV-1 Env of pseudovirus 231965.c01 (HIV-1)
[7] = target: HIV-1 Env of pseudovirus 6952.v1.c20 (HIV-1)
[8] = target: HIV-1 Env of pseudovirus 3817.v2.c59 (HIV-1)
[9] = target: HIV-1 Env of pseudovirus 231966.c02 (HIV-1)
[10] = target: HIV-1 Env of pseudovirus 235-47 (HIV-1)
[11] = target: HIV-1 Env of pseudovirus T257-31 (HIV-1)
[12] = target: HIV-1 Env of pseudovirus T255-34 (HIV-1)
[13] = target: HIV-1 Env of pseudovirus 89-F1_2_25 (HIV-1)
[14] = target: HIV-1 Env of pseudovirus 6540.v4.c1 (HIV-1)
[15] = target: HIV-1 Env of pseudovirus 9004SS_A3_4 (HIV-1)
[16] = target: HIV-1 Env of pseudovirus X1193_c1 (HIV-1)
[17] = target: HIV-1 Env of pseudovirus X1632_S2_B10 (HIV-1)
[18] = target: HIV-1 Env of pseudovirus C4118.c09 (HIV-1)
[19] = target: HIV-1 Env of pseudovirus 211-9 (HIV-1)
[20] = target: HIV-1 Env of pseudovirus BJOX025000.01.1 (HIV-1)
[21] = target: HIV-1 Env of pseudovirus 191084 B7-19 (HIV-1)
[22] = target: HIV-1 Env of pseudovirus P1981_C5_3 (HIV-1)
[23] = target: HIV-1 Env of pseudovirus BJOX015000.11.5 (HIV-1)
[24] = target: HIV-1 Env of pseudovirus 6480.v4.c25 (HIV-1)
[25] = target: HIV-1 Env of pseudovirus R1166.c01 (HIV-1)
[26] = target: HIV-1 Env of pseudovirus 6041.v3.c23 (HIV-1)
[27] = target: HIV-1 Env of pseudovirus 620345.c01 (HIV-1)
[28] = target: HIV-1 Env of pseudovirus 191955_A11 (HIV-1)
[29] = target: HIV-1 Env of pseudovirus 3301.v1.c24 (HIV-1)
[30] = target: HIV-1 Env of pseudovirus 6811.v7.c18 (HIV-1)
[31] = target: HIV-1 Env of pseudovirus BJOX028000.10.3 (HIV-1)
[32] = target: HIV-1 Env of pseudovirus 6545.v4.c1 (HIV-1)
[33] = target: HIV-1 Env of pseudovirus 3016.v5.c45 (HIV-1)
[34] = target: HIV-1 Env of pseudovirus 3103.v3.c10 (HIV-1)
[35] = target: HIV-1 Env of pseudovirus 928-28 (HIV-1)
[36] = target: HIV-1 Env of pseudovirus R2184.c04 (HIV-1)

PGT128 (antibody)
IC50 (Titer in TZM.bl cells) [1]: < 1 ng/mL | IC80 (Titer in TZM.bl cells) [1]: 5 ng/mL | IC50 (Titer in TZM.bl cells) [2]: > 50 µg/mL | IC80 (Titer in TZM.bl cells) [2]: > 50 µg/mL | IC50 (Titer in TZM.bl cells) [3]: 0.283 µg/mL | IC80 (Titer in TZM.bl cells) [3]: 2.06 µg/mL | IC50 (Titer in TZM.bl cells) [4]: 1 ng/mL | IC80 (Titer in TZM.bl cells) [4]: 7 ng/mL | IC50 (Titer in TZM.bl cells) [5]: > 50 µg/mL | IC80 (Titer in TZM.bl cells) [5]: > 50 µg/mL | IC50 (Titer in TZM.bl cells) [6]: > 50 µg/mL | IC80 (Titer in TZM.bl cells) [6]: > 50 µg/mL | IC50 (Titer in TZM.bl cells) [7]: > 50 µg/mL | IC80 (Titer in TZM.bl cells) [7]: > 50 µg/mL | IC50 (Titer in TZM.bl cells) [8]: 3 ng/mL | IC80 (Titer in TZM.bl cells) [8]: 0.023 µg/mL | IC50 (Titer in TZM.bl cells) [9]: 3.2 µg/mL | IC80 (Titer in TZM.bl cells) [9]: > 50 µg/mL | IC50 (Titer in TZM.bl cells) [10]: > 50 µg/mL | IC80 (Titer in TZM.bl cells) [10]: > 50 µg/mL | neutralization IC50 [11]: > 50 µg/mL | neutralization IC80 [11]: > 50 µg/mL | IC50 (Titer in TZM.bl cells) [12]: > 50 µg/mL | IC80 (Titer in TZM.bl cells) [12]: > 50 µg/mL | IC50 (Titer in TZM.bl cells) [13]: > 50 µg/mL | IC80 (Titer in TZM.bl cells) [13]: > 50 µg/mL | IC50 (Titer in TZM.bl cells) [14]: 11.8 µg/mL | IC80 (Titer in TZM.bl cells) [14]: > 50 µg/mL | neutralization IC50 [15]: 2 ng/mL | neutralization IC80 [15]: 0.01 µg/mL | IC50 (Titer in TZM.bl cells) [16]: > 50 µg/mL | IC80 (Titer in TZM.bl cells) [16]: > 50 µg/mL | IC50 (Titer in TZM.bl cells) [17]: > 50 µg/mL | IC80 (Titer in TZM.bl cells) [17]: > 50 µg/mL | IC50 (Titer in TZM.bl cells) [18]: > 50 µg/mL | IC80 (Titer in TZM.bl cells) [18]: > 50 µg/mL | IC50 (Titer in TZM.bl cells) [19]: 0.062 µg/mL | IC80 (Titer in TZM.bl cells) [19]: 0.215 µg/mL | IC50 (Titer in TZM.bl cells) [20]: > 50 µg/mL | IC80 (Titer in TZM.bl cells) [20]: > 50 µg/mL | neutralization IC50 [21]: 0.022 µg/mL | neutralization IC80 [21]: 0.152 µg/mL | IC50 (Titer in TZM.bl cells) [22]: 0.019 µg/mL | IC80 (Titer in TZM.bl cells) [22]: 0.088 µg/mL | IC50 (Titer in TZM.bl cells) [23]: 1 ng/mL | IC80 (Titer in TZM.bl cells) [23]: 0.011 µg/mL | IC50 (Titer in TZM.bl cells) [24]: 3 ng/mL | IC80 (Titer in TZM.bl cells) [24]: 0.019 µg/mL | IC50 (Titer in TZM.bl cells) [25]: > 50 µg/mL | IC80 (Titer in TZM.bl cells) [25]: > 50 µg/mL | IC50 (Titer in TZM.bl cells) [26]: > 50 µg/mL | IC80 (Titer in TZM.bl cells) [26]: > 50 µg/mL | IC50 (Titer in TZM.bl cells) [27]: > 50 µg/mL | IC80 (Titer in TZM.bl cells) [27]: > 50 µg/mL | neutralization IC50 [28]: 14.2 µg/mL | neutralization IC80 [28]: > 50 µg/mL | IC50 (Titer in TZM.bl cells) [29]: 0.067 µg/mL | IC80 (Titer in TZM.bl cells) [29]: 0.499 µg/mL | IC50 (Titer in TZM.bl cells) [30]: 3 ng/mL | IC80 (Titer in TZM.bl cells) [30]: 0.05 µg/mL | IC50 (Titer in TZM.bl cells) [31]: 0.024 µg/mL | IC80 (Titer in TZM.bl cells) [31]: 0.07 µg/mL | IC50 (Titer in TZM.bl cells) [32]: > 50 µg/mL | IC80 (Titer in TZM.bl cells) [32]: > 50 µg/mL | IC50 (Titer in TZM.bl cells) [33]: > 50 µg/mL | IC80 (Titer in TZM.bl cells) [33]: > 50 µg/mL | IC50 (Titer in TZM.bl cells) [34]: 0.014 µg/mL | IC80 (Titer in TZM.bl cells) [34]: 0.033 µg/mL | neutralization IC50 [35]: > 50 µg/mL | neutralization IC80 [35]: > 50 µg/mL | IC50 (Titer in TZM.bl cells) [36]: 20.1 µg/mL | IC80 (Titer in TZM.bl cells) [36]: > 50 µg/mL
